Data on two molecules can be found in doi:10.1101/2025.07.08.663435 (bioRxiv, 2025).

Series [1] addresses T1, SMCHD1 ATPase domain (UniProt A6NHR9 25-581).
T1 sequence: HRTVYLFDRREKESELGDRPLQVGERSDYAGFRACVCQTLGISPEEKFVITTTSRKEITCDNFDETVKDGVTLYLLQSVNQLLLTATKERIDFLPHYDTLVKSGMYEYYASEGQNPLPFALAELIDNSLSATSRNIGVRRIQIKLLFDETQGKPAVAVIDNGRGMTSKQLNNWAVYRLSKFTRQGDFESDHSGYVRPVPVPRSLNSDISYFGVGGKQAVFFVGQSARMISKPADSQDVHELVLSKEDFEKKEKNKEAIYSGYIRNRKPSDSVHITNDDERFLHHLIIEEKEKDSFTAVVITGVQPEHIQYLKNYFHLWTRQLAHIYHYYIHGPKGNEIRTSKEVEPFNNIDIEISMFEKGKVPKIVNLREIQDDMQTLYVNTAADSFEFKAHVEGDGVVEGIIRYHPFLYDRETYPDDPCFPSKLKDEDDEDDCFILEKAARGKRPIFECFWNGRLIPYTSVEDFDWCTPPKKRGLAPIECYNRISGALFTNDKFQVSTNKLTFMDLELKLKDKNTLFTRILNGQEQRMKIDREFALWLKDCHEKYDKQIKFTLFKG
The series is described as follows: EMSA.

Series [2] deals with the molecule itself. The series is described as follows: atomic force microscopy.

B1: FAM 37 bp duplex (dsDNA)
DNA 1: CCTAGGCTACACCTACTCTTTGTAAGAATTAAGCTTC
DNA 2: GAAGCTTAATTCTTACAAAGAGTAGGTGTAGCCTAGG
B1: the binding result in series [1] was “binds”.

B2: SMCHD1^△CC, truncated SMCHD1 without both coiled-coil domains, purified (natural protein, human, UniProt A6NHR9 1-2005, looked up)
chain: MAAADGGGPGGASVGTEEDGGGVGHRTVYLFDRREKESELGDRPLQVGERSDYAGFRACVCQTLGISPEEKFVITTTSRKEITCDNFDETVKDGVTLYLLQSVNQLLLTATKERIDFLPHYDTLVKSGMYEYYASEGQNPLPFALAELIDNSLSATSRNIGVRRIQIKLLFDETQGKPAVAVIDNGRGMTSKQLNNWAVYRLSKFTRQGDFESDHSGYVRPVPVPRSLNSDISYFGVGGKQAVFFVGQSARMISKPADSQDVHELVLSKEDFEKKEKNKEAIYSGYIRNRKPSDSVHITNDDERFLHHLIIEEKEKDSFTAVVITGVQPEHIQYLKNYFHLWTRQLAHIYHYYIHGPKGNEIRTSKEVEPFNNIDIEISMFEKGKVPKIVNLREIQDDMQTLYVNTAADSFEFKAHVEGDGVVEGIIRYHPFLYDRETYPDDPCFPSKLKDEDDEDDCFILEKAARGKRPIFECFWNGRLIPYTSVEDFDWCTPPKKRGLAPIECYNRISGALFTNDKFQVSTNKLTFMDLELKLKDKNTLFTRILNGQEQRMKIDREFALWLKDCHEKYDKQIKFTLFKGVITRPDLPSKKQGPWATYAAIEWDGKIYKAGQLVKTIKTLPLFYGSIVRFFLYGDHDGEVYATGGEVQIAMEPQALYDEVRTVPIAKLDRTVAEKAVKKYVEDEMARLPDRLSVTWPEGDELLPNEVRPAGTPIGALRIEILNKKGEAMQKLPGTSHGGSKKLLVELKVILHSSSGNKEIISHISQHGGKWPYWFKKMENIQKLGNYTLKLQVVLNESNADTYAGRPLPSKAIKFSVKEGKPEKFSFGLLDLPFRVGVPFNIPLEFQDEFGHTSQLVTDIQPVLEASGLSLHYEEITKGPNCVIRGVTAKGPVNSCQGKNYNLKVTLPGLKEDSQILKIRLLPGHPRRLKVKPDSEILVIENGTAFPFQVEVLDESDNITAQPKLIVHCKFSGAPNLPVYVVDCSSSGTSILTGSAIQVQNIKKDQTLKARIEIPSCKDVAPVEKTIKLLPSSHVARLQIFSVEGQKAIQIKHQDEVNWIAGDIMHNLIFQMYDEGEREINITSALAEKIKVNWTPEINKEHLLQGLLPDVQVPTSVKDMRYCQVSFQDDHVSLESAFTVRPLPDEPKHLKCEMKGGKTVQMGQELQGEVVIIITDQYGNQIQAFSPSSLSSLSIAGVGLDSSNLKTTFQENTQSISVRGIKFIPGPPGNKDLCFTWREFSDFIRVQLISGPPAKLLLIDWPELKESIPVINGRDLQNPIIVQLCDQWDNPAPVQHVKISLTKASNLKLMPSNQQHKTDEKGRANLGVFSVFAPRGEHTLQVKAIYNKSIIEGPIIKLMILPDPEKPVRLNVKYDKDASFLAGGLFTDFMISVISEDDSIIKNINPARISMKMWKLSTSGNRPPANAETFSCNKIKDNDKEDGCFYFRDKVIPNKVGTYCIQFGFMMDKTNILNSEQVIVEVLPNQPVKLVPKIKPPTPAVSNVRSVASRTLVRDLHLSITDDYDNHTGIDLVGTIIATIKGSNEEDTDTPLFIGKVRTLEFPFVNGSAEIMSLVLAESSPGRDSTEYFIVFEPRLPLLSRTLEPYILPFMFYNDVQQVPHIEALLKRKLSEQEELKKKPRRSCTLPNYTKGSGDVLGKIAHLAQIEDDRAAMVISWHLASDMDCVVTLTTDAARRIYDETQGRQQVLPLDSIYKKTLPDWKRSLPHFRNGKLYFKPIGDPVFARDLLTFPDNVEHCETVFGMLLGDTIILDNLDAANHYRKEVVKITHCPTLLTRDGDRIRSNGKFGGLQNKAPPMDKLRGMVFGAPVPKQCEEKLGMTPIRKCNDSLRHSPKVETTDCPVPPKRMRREATRQNRIITKTDV
On to B2, for which, in series [2], the binding result is “binds”.
